This is an account of results in paper PMC9739478.

This test has as its target human von Willebrand factor (vWF) (human) (UniProt P04275).

“glycoprotein Ib alpha chain (GPIbα) (from UniProt P07359 17-652) (receptor)”: the platelet adherence to vWF-coated surface (LDH assay, normalised to PRP only = 100%) in the presence of GPIb-NPs, 1 mg/mL was found to be 72%; the platelet adherence to vWF-coated surface (LDH assay, normalised to PRP only = 100%) in the presence of dual-NPs (GPIbα and anti-CD34 HuscFv on one NP), 1 mg/mL is 76%; the platelet adherence to vWF-coated surface (LDH assay, normalised to PRP only = 100%) in the presence of free GPIb was 86%.
